Laboratory results as given in US20250135026A1, “Antibody Drug Conjugates” (BeiGene Switzerland GmbH, priority 2021, published 2025).

Assays:
cathepsin B = cathepsin B (Homo sapiens, UniProt P07858); test: Cathepsin B mediated rhodamine release; type: biochemical; settings: 150 nM, 0.3 unit activated cathepsin B, pH 5.5, 37° C., FIG. 21
Protocol: CTSB was activated by incubation at ambient temperature for 15 min with 30 mM dithiothreitol and 15 mM EDTA at PH5.5.
Reaction buffer preparation: 25 mM sodium acetate & 1 mM EDTA, PH5.5.
Adding 150 nM NAcCys-13 & NAcCys-14 & NAcCys-15 & NAcCys-16 & NAcCys-17 and 0.3 unit activated cathepsin B mixture according to the experiment template.
The reaction mixtures were incubated at 37° C. immediately in the reader, then start reading using the kinetic set-up described. (TECAN SPARK: excitation/emission: 485/520 nm) (120 cycles, every one min) Gain Manual: 77%
Data analysis by GraphPad Prism 9 is illustrated in FIG. 21.

A375 = test: Compounds cellular killing (Cell Titer-Glo, 6 days, 2D); type: cell-based, human; settings: Homo sapiens, A-375, Table 28, payload, A375, 2D (Her3 ++)
Protocol: (§1) The cell line was grown in a humidified 5% CO2 atmosphere at 37° C., and was regularly tested for the presence of mycoplasma with MycoAlert™ PLUS Mycoplasma Detection Kit (Lonza, LT07-710).
(§2) Incubation at 37° C., 5% CO2, overnight.
(§3) Adding the fresh growth-medium containing the varying concentrations of compounds, 50 ul/well.
(§4) Incubation at 37° C., 5% CO2, 6 days.
(§5) The cell viability detected by Cell Titer-Glo (Promega, G7573). Add 70 µL/well of CellTiter-Glo® Reagent in each well.
(§6) Allow the plates to incubate at room temperature for 10 minutes to stabilize luminescent signal.
(§7) Analyze with Microplate Reader.

Calu-6 = test: as above; type: cell-based; settings: Homo sapiens, Calu-6, 2D (HER3 neg.)
Protocol: as §1, §2, §3, §4, §5, §6, §7

HCC1569 = test: Payload cellular killing, 2D; type: cell-based; settings: Homo sapiens, Table 28, payload, HCC1569, 2D (HER3 +++)
MDA-MB-453 = test: Payload cellular killing, 2D; type: cell-based, human; settings: Homo sapiens, Table 28, payload, MDA-MB-453, 2D (HER3 +++)
Protocol: as §1

[1] = ADC hydrophobicity evaluation by HIC (retention time of DAR8 species); type: physicochemical; settings: HIC method with isopropanol in the mobile phase (values marked *, Method 1)
Excerpt: ADC Hydrophobicity Evaluation
ADC with more hydrophobic property would appeared with later retention time from HIC (hydrophobicity interaction column) chromatography. In this invention, […].
The HIC retention time (HIC RT, here only HIC RT of DAR8 species is listed in the table) can be seen as a measure to evaluate ADC's hydrophobicity.

A549 (PTK7 low) = test: Cellular killing on PTK7 cell lines (Cell-Titer-Glo, 7 days); type: cell-based; settings: Anti-proliferation
Protocol: (§8) The plates were incubated for 7 days at 37° C., 5% CO2. Next, 50 μL of Cell-Titer-Glo reagent was added to each well. The mixture was mixed on an orbital shaker for 10 mins to allow cell lysis. Then, the luminescent signal was measured using BMG PheraStar with the luminescent protocol. The inhibition of Ovcar3 and A549 cell lines is illustrated in FIG. 22 and FIG. 23, respectively.

Ovcar3 (PTK7 high) = test: as above; type: cell-based; settings: Anti-proliferation
Protocol: as §8

Molecule | HIC DAR8 RT [1] | Emax (A549 (PTK7 low)) | IC50 (A549 (PTK7 low)) | Emax (Ovcar3 (PTK7 high)) | IC50 (Ovcar3 (PTK7 high)) | other results
CCOC(=O)Nc1ccc2c(c1)Oc1cc(NC(=O)OCc3ccc(NC(=O)[C@H](CCCNC(N)=O)NC(=O)[C@@H](NC(=O)[C@H](CS(=O)(=O)O)NC(=O)CCOCCOCCOCCN4C(=O)CC(SC[C@H](NC(C)=O)C(=O)O)C4=O)C(C)C)cc3)ccc1C21OC(=O)c2ccccc21 (stereo partly shown) [NAcCys-15] |  |  |  |  |  | cathepsin B mediated rhodamine release rate, rank (cathepsin B): NAcCys-15˜NAcCys-13 (benchmark)>NAcCys-14>NAcCys-17
CCc1c2c(nc3ccc(O)cc13)-c1cc3c(c(=O)n1C2)COC(=O)[C@]3(O)CC [SN-38, reference compound] |  |  |  |  |  | EC50 (A375): 3.4 nM; Emax (A375; read-out: Emax): 99.9%; EC50 (Calu-6; Calu-6, Table 28, payload): 2.9 nM; Emax (Calu-6; Table 28, payload, read-out: Emax): 99.5%; EC50 (HCC1569): 5 nM; Emax (HCC1569; read-out: Emax): 95%; EC50 (MDA-MB-453): 2.4 nM; Emax (MDA-MB-453; read-out: Emax): 98.6%
ADC1-4: antibody: Cofetuzumab (conjugate, chains of the INN, looked up, drug conjugate, antibody: Cofetuzumab) VH: QVQLVQSGPEVKKPGASVKVSCKASGYTFTDYAVHWVRQAPGKRLEWIGVISTYNDYTYNNQDFKGRVTMTRDTSASTAYMELSRLRSEDTAVYYCARGNSYFYALDYWGQGTSVTVSS VL: EIVLTQSPATLSLSPGERATLSCRASESVDSYGKSFMHWYQQKPGQAPRLLIYRASNLESGIPARFSGSGSGTDFTLTISSLEPEDFAVYYCQQSNEDPWTFGGGTKLEIK | 14.50* min | 20.12% | > 200 nM | 93.45% | 0.32 nM | 
ADC1-2: antibody: Cofetuzumab (conjugate, chains of the INN, looked up, drug conjugate, antibody: Cofetuzumab) VH: QVQLVQSGPEVKKPGASVKVSCKASGYTFTDYAVHWVRQAPGKRLEWIGVISTYNDYTYNNQDFKGRVTMTRDTSASTAYMELSRLRSEDTAVYYCARGNSYFYALDYWGQGTSVTVSS VL: EIVLTQSPATLSLSPGERATLSCRASESVDSYGKSFMHWYQQKPGQAPRLLIYRASNLESGIPARFSGSGSGTDFTLTISSLEPEDFAVYYCQQSNEDPWTFGGGTKLEIK | 14.67* min | 34.22% | > 200 nM | 93.47% | 0.23 nM | 
ADC1-1: antibody: Cofetuzumab; "ADC Compounds used references" (conjugate, chains of the INN, looked up, drug conjugate) VH: QVQLVQSGPEVKKPGASVKVSCKASGYTFTDYAVHWVRQAPGKRLEWIGVISTYNDYTYNNQDFKGRVTMTRDTSASTAYMELSRLRSEDTAVYYCARGNSYFYALDYWGQGTSVTVSS VL: EIVLTQSPATLSLSPGERATLSCRASESVDSYGKSFMHWYQQKPGQAPRLLIYRASNLESGIPARFSGSGSGTDFTLTISSLEPEDFAVYYCQQSNEDPWTFGGGTKLEIK | 14.56* min | 38.87% | > 200 nM | 95.76% | 0.31 nM | 
ADC1-12: antibody: Cofetuzumab; "ADC Compounds used references" (conjugate, chains of the INN, looked up, drug conjugate) VH: QVQLVQSGPEVKKPGASVKVSCKASGYTFTDYAVHWVRQAPGKRLEWIGVISTYNDYTYNNQDFKGRVTMTRDTSASTAYMELSRLRSEDTAVYYCARGNSYFYALDYWGQGTSVTVSS VL: EIVLTQSPATLSLSPGERATLSCRASESVDSYGKSFMHWYQQKPGQAPRLLIYRASNLESGIPARFSGSGSGTDFTLTISSLEPEDFAVYYCQQSNEDPWTFGGGTKLEIK | 13.98* min | 5.76% | > 200 nM | 86.04% | 39.4 nM | 
ADC1-11: antibody: Cofetuzumab (conjugate, chains of the INN, looked up, drug conjugate, antibody: Cofetuzumab) VH: QVQLVQSGPEVKKPGASVKVSCKASGYTFTDYAVHWVRQAPGKRLEWIGVISTYNDYTYNNQDFKGRVTMTRDTSASTAYMELSRLRSEDTAVYYCARGNSYFYALDYWGQGTSVTVSS VL: EIVLTQSPATLSLSPGERATLSCRASESVDSYGKSFMHWYQQKPGQAPRLLIYRASNLESGIPARFSGSGSGTDFTLTISSLEPEDFAVYYCQQSNEDPWTFGGGTKLEIK | 14.77* min | 26.44% | > 200 nM | 100.9% | 2.1 nM | 
